Each block holds one binder with its values, some of them ahead of it.
Legend:
Experiment in all cases: holdup assay
Design in all cases: key: below the threshold = too weak to quantify, mostly under pKd 3.1 to 4
[1] = target: MAGI2_4, Q86UL8
[2] = target: T1, DFNB31_3, Q9P202
T1 sequence (Q9P202 811-907, limits assumed, looked up): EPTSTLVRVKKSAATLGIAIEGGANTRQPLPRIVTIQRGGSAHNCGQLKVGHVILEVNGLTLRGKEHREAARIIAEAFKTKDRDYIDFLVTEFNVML

[3] = target: GRASP, Q7Z6J2
[4] = target: GRIP2_7, Q9C0E4
[5] = target: T2, SNTA1, Q13424
T2 sequence (Q13424 82-180, limits assumed, looked up): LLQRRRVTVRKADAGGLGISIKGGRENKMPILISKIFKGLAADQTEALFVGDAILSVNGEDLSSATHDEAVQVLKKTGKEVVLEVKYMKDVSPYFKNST

[6] = target: FRMPD4, Q14CM0
FRMPD4, Q14CM0, sequence (Q14CM0 67-160): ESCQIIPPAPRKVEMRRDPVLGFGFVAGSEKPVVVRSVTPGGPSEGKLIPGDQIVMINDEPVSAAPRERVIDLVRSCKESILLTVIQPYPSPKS

[7] = target: IL16_3, Q14005
IL16_3, Q14005, sequence (Q14005 1107-1207): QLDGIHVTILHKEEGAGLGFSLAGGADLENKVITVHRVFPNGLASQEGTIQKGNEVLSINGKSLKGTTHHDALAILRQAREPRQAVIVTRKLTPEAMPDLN

[8] = target: HTRA1, Q92743
HTRA1, Q92743, sequence (Q92743 360-477): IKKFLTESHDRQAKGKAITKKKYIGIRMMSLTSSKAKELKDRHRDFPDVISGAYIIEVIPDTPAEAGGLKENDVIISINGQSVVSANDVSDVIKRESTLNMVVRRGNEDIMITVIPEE

[9] = target: SCRIB_1, Q14160
SCRIB_1, Q14160, sequence (Q14160 718-814): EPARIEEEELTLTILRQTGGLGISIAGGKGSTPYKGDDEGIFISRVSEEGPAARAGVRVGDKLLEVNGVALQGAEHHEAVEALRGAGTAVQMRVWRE

[10] = target: T3, DLG3_1, Q92796
T3 sequence (Q92796 125-227, limits assumed, looked up): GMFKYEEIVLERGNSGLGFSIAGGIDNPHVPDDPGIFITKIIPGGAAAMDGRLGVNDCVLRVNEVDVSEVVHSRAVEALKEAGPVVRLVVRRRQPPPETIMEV

[11] = target: T4, PARD3B_1, Q8TEW8
T4 sequence (Q8TEW8 196-299, limits assumed, looked up): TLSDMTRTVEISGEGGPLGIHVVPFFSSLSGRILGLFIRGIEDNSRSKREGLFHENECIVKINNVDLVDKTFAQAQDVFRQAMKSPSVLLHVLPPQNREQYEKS

[12] = target: MAST2, Q6P0Q8
MAST2, Q6P0Q8, sequence (Q6P0Q8 1099-1202): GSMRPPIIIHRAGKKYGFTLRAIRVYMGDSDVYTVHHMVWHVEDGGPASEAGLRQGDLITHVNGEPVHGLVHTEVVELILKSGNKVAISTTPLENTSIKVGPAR

[13] = target: MAGI1_1, Q96QZ7
MAGI1_1, Q96QZ7, sequence (Q96QZ7 1-106): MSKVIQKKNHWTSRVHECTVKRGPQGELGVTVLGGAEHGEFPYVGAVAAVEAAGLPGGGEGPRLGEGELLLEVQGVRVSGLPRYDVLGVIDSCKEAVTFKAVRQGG

[14] = target: T5, FRMPD1, Q5SYB0
T5 sequence (Q5SYB0 52-145, limits assumed, looked up): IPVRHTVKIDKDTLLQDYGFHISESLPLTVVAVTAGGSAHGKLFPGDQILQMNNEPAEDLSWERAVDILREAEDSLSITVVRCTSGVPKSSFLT

[15] = target: T6, HTRA4, P83105
T6 sequence (P83105 378-476, limits assumed, looked up): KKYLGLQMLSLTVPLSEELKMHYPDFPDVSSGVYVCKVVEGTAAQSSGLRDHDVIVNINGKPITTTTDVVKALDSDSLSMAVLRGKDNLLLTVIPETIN

[16] = target: T7, MPP2, Q14168
T7 sequence (Q14168 180-250, limits assumed, looked up): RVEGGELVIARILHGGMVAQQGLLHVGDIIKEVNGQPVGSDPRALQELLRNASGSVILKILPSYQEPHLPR

[17] = target: T8, APBA2_2, Q99767
T8 sequence (Q99767 654-744, limits assumed, looked up): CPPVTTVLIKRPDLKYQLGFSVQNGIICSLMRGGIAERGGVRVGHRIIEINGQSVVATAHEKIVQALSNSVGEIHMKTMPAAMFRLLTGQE

[18] = target: MAGI2_6, Q86UL8
MAGI2_6, Q86UL8, sequence (Q86UL8 1141-1229): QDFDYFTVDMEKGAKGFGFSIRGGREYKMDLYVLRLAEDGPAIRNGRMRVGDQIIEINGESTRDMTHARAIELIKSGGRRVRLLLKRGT

[19] = target: GORASP2, Q9H8Y8
[20] = target: LNX1_2, Q8TBB1
LNX1_2, Q8TBB1, sequence (Q8TBB1 371-470): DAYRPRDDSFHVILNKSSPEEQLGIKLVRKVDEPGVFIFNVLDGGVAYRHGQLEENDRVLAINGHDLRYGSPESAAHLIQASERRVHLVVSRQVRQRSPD

[21] = target: T9, DFNB31_2, Q9P202
T9 sequence (Q9P202 274-371, limits assumed, looked up): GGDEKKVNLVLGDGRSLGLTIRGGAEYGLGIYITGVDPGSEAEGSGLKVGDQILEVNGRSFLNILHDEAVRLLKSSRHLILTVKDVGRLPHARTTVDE

[22] = target: T10, LIN7A, O14910
T10 sequence (O14910 103-200, limits assumed, looked up): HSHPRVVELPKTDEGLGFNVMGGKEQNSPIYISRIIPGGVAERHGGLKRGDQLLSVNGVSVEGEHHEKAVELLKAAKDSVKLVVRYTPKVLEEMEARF

[23] = target: T11, APBA1_1, Q02410
T11 sequence (Q02410 651-752, limits assumed, looked up): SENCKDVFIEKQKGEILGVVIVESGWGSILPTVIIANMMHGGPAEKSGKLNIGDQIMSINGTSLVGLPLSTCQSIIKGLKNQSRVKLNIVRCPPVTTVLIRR

[24] = target: DLG2_2, Q15700
DLG2_2, Q15700, sequence (Q15700 189-283): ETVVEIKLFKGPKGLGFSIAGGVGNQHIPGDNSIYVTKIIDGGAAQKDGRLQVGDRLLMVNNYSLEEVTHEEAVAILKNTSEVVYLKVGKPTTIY

[25] = target: T12, GRIP1_2, Q9Y3R0
T12 sequence (Q9Y3R0 145-248, limits assumed, looked up): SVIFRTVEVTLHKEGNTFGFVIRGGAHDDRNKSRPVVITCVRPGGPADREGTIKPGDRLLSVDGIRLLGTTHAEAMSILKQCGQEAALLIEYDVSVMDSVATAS

[26] = plain residues with an end cap or a label only (N-terminal biotin on a linker: gsgsgs; C-terminal amide)
[27] = plain residues with an end cap or a label only (N-terminal biotin on a linker: ahx)

MAGI2_4, Q86UL8, sequence (Q86UL8 772-865): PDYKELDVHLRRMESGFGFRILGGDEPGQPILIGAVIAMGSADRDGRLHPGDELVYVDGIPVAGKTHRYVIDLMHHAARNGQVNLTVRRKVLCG
GRIP2_7, Q9C0E4, sequence (Q9C0E4 934-1023): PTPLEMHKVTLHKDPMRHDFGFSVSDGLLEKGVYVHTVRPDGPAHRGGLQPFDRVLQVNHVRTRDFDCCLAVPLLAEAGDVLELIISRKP
GRASP, Q7Z6J2, sequence (Q7Z6J2 96-193): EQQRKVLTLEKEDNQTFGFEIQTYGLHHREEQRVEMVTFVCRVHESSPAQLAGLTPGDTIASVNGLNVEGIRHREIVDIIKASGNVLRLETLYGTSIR

pKd [1, 26]: below the threshold | pKd [2, 26]: 4.02 | pKd [3, 26]: below the threshold | pKd [4, 26]: below the threshold | pKd [5, 26]: below the threshold | pKd [6, 26]: below the threshold | pKd [7, 26]: below the threshold | pKd [8, 26]: below the threshold | pKd [9, 26]: below the threshold | pKd [10, 26]: below the threshold | pKd [11, 26]: below the threshold | pKd [12, 26]: below the threshold | pKd [13, 26]: below the threshold | pKd [14, 26]: below the threshold | pKd [15, 26]: below the threshold | pKd [16, 26]: below the threshold | pKd [17, 26]: below the threshold | pKd [18, 26]: below the threshold | pKd [19, 26]: below the threshold | pKd [20, 26]: below the threshold | pKd [21, 26]: below the threshold | pKd [22, 26]: below the threshold | pKd [23, 26]: below the threshold | pKd [24, 26]: below the threshold | pKd [25, 26]: below the threshold
Binder: VSVDDVRSTSQGLSSY [DFNB31_int, Q9P202]

pKd [1, 27]: below the threshold | pKd [2, 27]: below the threshold | pKd [3, 27]: below the threshold | pKd [4, 27]: below the threshold | pKd [5, 27]: below the threshold | pKd [6, 27]: below the threshold | pKd [7, 27]: below the threshold | pKd [8, 27]: below the threshold | pKd [9, 27]: below the threshold | pKd [10, 27]: below the threshold | pKd [11, 27]: below the threshold | pKd [12, 27]: below the threshold | pKd [13, 27]: below the threshold | pKd [14, 27]: below the threshold | pKd [15, 27]: below the threshold | pKd [16, 27]: below the threshold | pKd [17, 27]: below the threshold | pKd [18, 27]: below the threshold | pKd [19, 27]: below the threshold | pKd [20, 27]: below the threshold | pKd [21, 27]: below the threshold | pKd [22, 27]: below the threshold | pKd [23, 27]: below the threshold | pKd [24, 27]: below the threshold | pKd [25, 27]: below the threshold
Binder: PSASCAVTAA [PDLIM4, P50479;P50479-2]

Reference: publication PMC9482650, “Quantitative fragmentomics allow affinity mapping of interactomes” (Nature Communications, 2022)
